Tested on: MS2 coat protein
Experiment: apparent KD of MS2 coat protein; designed switch direction (-1 OFF switch, 1 ON switch): -1; higher = weaker reporter binding
Summary of the method: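 Each step of the titration lasted 0.8–1.5 h at the lowest concentration and 10–20 min at the highest. The protein, SNAP-549-labelled MS2 coat protein, went from 0.7 or 1.5 nM doubling to 3 µM over RNA switches transcribed on Illumina chips by stalled E. coli RNA polymerase. Normalised cluster fluorescence was curve-fitted, and the per-design median over clusters is given as apparent KD.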

[1] = input ligand: microRNA oligo, concentration not stated
[2] = Eterna round: R95, input ligand: microRNA oligo, concentration not stated
[3] = Eterna round: R95, input ligand: FMN 200 uM
[4] = Eterna round: R95, input ligand: none

UUUUUAUAUGAAGGAUAUACUUAACAUGAGGAUCACCCAUGUGGUGUUGUGAGUGAGUGAGUUUAGUAGAAGGUCAAGUCUUUU [JMF's solution 36] (Eterna round: R96, puzzle: Exclusion NG 2)
apparent KD of MS2 coat protein (input ligand: FMN 200 uM): 555 nM | apparent KD of MS2 coat protein [1]: 383 nM | apparent KD of MS2 coat protein (input ligand: none): 361 nM

GACGUGUGAGGAUAUGCCGUGCCGGUCCGGAAGGUUCGGGUGCAGAAGGCACAUGAGGAUCACCCAUGUGUAAG [Excls4-VI] (puzzle: Exclusion 4)
apparent KD of MS2 coat protein [2]: 17.7 nM

ACAUGAGGAUCACCCAUGUCUGGCUGGUCCGUCUCGGCUGUCGAGGAUAUGGCUCGGUGUCCGCGCUAGAAGGCGGGAGCCGGA [Aenatbe mod 77] (Eterna round: R96, puzzle: Exclusion NG 3)
apparent KD of MS2 coat protein (input ligand: FMN 200 uM): 685 nM | apparent KD of MS2 coat protein [1]: 58.2 nM | apparent KD of MS2 coat protein (input ligand: none): 78.8 nM

GCGCCAUCGUGAGAUGGCGUAAUUACAUGAGGAUCACCCAUGUAGGAUAUCGAUUGCUUUGCAGUCGAGAAGGGCAUGUUUUGU [JL ENG3 3.85] (Eterna round: R96, puzzle: Exclusion NG 3)
apparent KD of MS2 coat protein (input ligand: FMN 200 uM): 33.3 nM | apparent KD of MS2 coat protein [1]: 26.4 nM | apparent KD of MS2 coat protein (input ligand: none): 31.5 nM

UUGGAUAUCUAUGGGAGUAACAUGAGGAUCACCCAUGUAUGUCUUGUUUUUUGUUCGUCAUAGGCCAUUUGAUUGGA [JR_SV3TOV1_Sub025] (puzzle: Sensor v3, turn-off variant 1)
apparent KD of MS2 coat protein [3]: 78.8 nM | apparent KD of MS2 coat protein [2]: 140 nM | apparent KD of MS2 coat protein [4]: 94.6 nM

GCAAGCGACUAGGCUCGUCUUAUAUUGAAAAGAUUGAAAACAUGAGGAUCACCCAUGUAUGUGGGAAAGUUGAAGUG [JR_SV3TOV2_Sub010] (puzzle: Sensor v3, turn-off variant 2)
apparent KD of MS2 coat protein [3]: 393 nM | apparent KD of MS2 coat protein [2]: 526 nM | apparent KD of MS2 coat protein [4]: 332 nM

GAGUGCUGAGGAUAUACAUGAGGAUCACCCAUGUGCUUCAGCUAGGAGACUAGCAUUGGUAGAAGGCAGUACUC [Mod of lroppy - Jieux - Exclusion 3] (Eterna round: R97, puzzle: Exclusion 3)
apparent KD of MS2 coat protein (input ligand: FMN 200 uM): 76.8 nM | apparent KD of MS2 coat protein (input ligand: none): 12.4 nM

GGAAGGAGUGUAAGGAUAUCCUCCUCGAAAGAGGAGGAGAAGGUACAUGAGGAUCACCCAUGUAGAGGAGGAGG [AK-MS2ROC-r4-Bmoexclusion4-10.1] (Eterna round: R97, puzzle: Brourd's mod of Exclusion 4)
apparent KD of MS2 coat protein (input ligand: FMN 200 uM): 73.6 nM | apparent KD of MS2 coat protein (input ligand: none): 35.7 nM

GUCAGCUCGUCAGGAUAUAUUAACAUGAGGAUCACCCAUGUAAGAUCAGGCUUCGGCCAAUGUUAAUAGAAGGGACGAGCUGAC [ENG2/12-B1] (Eterna round: R96, puzzle: Exclusion NG 2)
apparent KD of MS2 coat protein (input ligand: FMN 200 uM): 132 nM | apparent KD of MS2 coat protein [1]: 745 nM | apparent KD of MS2 coat protein (input ligand: none): 438 nM

GGUUGGCGAGGAUAUACAUGAGGAUCACCCAUGUGAGAGAAAAAAGUCAGGAAGAAAAGUAGAAGGCGCUGACG [salish99_ex3_r3_028] (puzzle: Exclusion 3)
apparent KD of MS2 coat protein [3]: 32.4 nM | apparent KD of MS2 coat protein [2]: 21.7 nM | apparent KD of MS2 coat protein [4]: 22.5 nM

AGGUGAGCCGUCAGGAUAUGCGUUCCGUAGGGUCAGCAGAAGGGACAUGAGGAUCACCCAUGUUUCGCACGUGG [Veraxedi] (Eterna round: R96, puzzle: Brourd's mod of Exclusion 4)
apparent KD of MS2 coat protein (input ligand: FMN 200 uM): 76.5 nM | apparent KD of MS2 coat protein [1]: 23.5 nM | apparent KD of MS2 coat protein (input ligand: none): 31.5 nM

GAUUAUGCGAGCUUUAGGGACAUGAGGAUCACCCAUGUUCGUCUUAUUGGUCUGAAUACACUGACAUACCUAAAUCU [JMF 56] (Eterna round: R96, puzzle: Sensor v3, turn-off variant 1)
apparent KD of MS2 coat protein (input ligand: FMN 200 uM): 17.1 nM | apparent KD of MS2 coat protein [1]: 18.3 nM | apparent KD of MS2 coat protein (input ligand: none): 18.7 nM

UCAGUGUUAGGAUAUCGAGCAAGUUGAAUAUUUGUCUGUAUCGAGAAGGGACAUGAGGAUCACCCAUGUGAGGC [Eternabot (L1) Solution 65] (Eterna round: R97, puzzle: Exclusion 4)
apparent KD of MS2 coat protein (input ligand: FMN 200 uM): 245 nM | apparent KD of MS2 coat protein (input ligand: none): 69.9 nM

GACAUGAGGAUCACCCAUGUAACCAGGGCAAUUCUCGAAAUGGAGGAUAUGAAUCUUAAUUAGGUUCAGAAGGCCAGAAGGCUA [Eternabot solution 29] (Eterna round: R96, puzzle: Exclusion NG 3)
apparent KD of MS2 coat protein (input ligand: FMN 200 uM): 784 nM | apparent KD of MS2 coat protein [1]: 194 nM | apparent KD of MS2 coat protein (input ligand: none): 206 nM

UUGGUUGGUGUAGGAUAUGUAUGAGGAUCACCCAUUAAUAAAUUUUAACCACGAGGAUCACCCGUGUAGAAGGACAUUGGUUAU [pwkr exNG2 2xF5 1xFMN.22] (Eterna round: R96, puzzle: Exclusion NG 2)
apparent KD of MS2 coat protein (input ligand: FMN 200 uM): 52 nM | apparent KD of MS2 coat protein [1]: 42.1 nM | apparent KD of MS2 coat protein (input ligand: none): 57.4 nM
